The source of these data is US7572574B2, “Method of measuring neprilysin activity” (Riken, priority 2002, dated 2009).

The experiment has as its target T1, neprilysin (Mus musculus, UniProt Q61391).
T1 construct: endogenous in cells; host or cells: mouse fetal cerebral cortex and hippocampus primary cultured nerve cells, paraformaldehyde-fixed
T1 sequence (Q61391 1-750): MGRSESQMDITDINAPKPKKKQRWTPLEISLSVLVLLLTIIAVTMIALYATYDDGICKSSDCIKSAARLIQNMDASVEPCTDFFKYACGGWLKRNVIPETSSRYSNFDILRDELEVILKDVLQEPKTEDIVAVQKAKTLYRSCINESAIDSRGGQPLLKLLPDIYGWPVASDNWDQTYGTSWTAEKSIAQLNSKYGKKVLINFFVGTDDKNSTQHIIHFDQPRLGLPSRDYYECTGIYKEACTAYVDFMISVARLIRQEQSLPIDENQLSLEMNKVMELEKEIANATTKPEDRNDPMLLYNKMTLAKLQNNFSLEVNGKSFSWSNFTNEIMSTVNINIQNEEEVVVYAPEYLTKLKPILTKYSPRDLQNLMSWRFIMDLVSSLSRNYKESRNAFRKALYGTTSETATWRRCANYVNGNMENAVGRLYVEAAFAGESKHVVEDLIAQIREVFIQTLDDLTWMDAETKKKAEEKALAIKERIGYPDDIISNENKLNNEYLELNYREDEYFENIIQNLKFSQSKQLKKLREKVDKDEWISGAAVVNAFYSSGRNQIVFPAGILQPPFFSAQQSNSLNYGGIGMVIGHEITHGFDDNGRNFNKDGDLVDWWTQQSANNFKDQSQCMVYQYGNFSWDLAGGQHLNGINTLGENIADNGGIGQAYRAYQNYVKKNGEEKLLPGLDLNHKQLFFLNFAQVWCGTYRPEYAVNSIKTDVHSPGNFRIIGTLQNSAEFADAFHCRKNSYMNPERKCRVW
Nature of the experiment: Neprilysin activity staining in mouse primary cultured nerve cells (fluorescent substrate, confocal microscopy). In kind it is cell-based. As to conditions: for action against the neprilysin activity or its gene expression: general statement in the description.

Method: Nerve cells were prepared from the mouse fetal cerebral cortex and hippocampus and seeded on a poly-L-coated chamber slide (8 chambers, IWAKI 4730-040) at a density of 1×10^5 cells/chamber, followed by incubation for 7 days. After completion of the incubation, the cells were washed with TBS (pH 7.4) and fixed for 12.5 minutes at 20° C. with a paraformaldehyde solution (1.5% paraformaldehyde/50 mM phosphate buffer, pH 6.8). After the cells were washed twice with TBS, 0.2 ml of substrate solution (glutaryl-alanyl-alanyl-phenylalanyl-4-methoxy-2-naphthylamide, Sigma G3769, fmal concentration: 0.5 mM; 0.05 M Tris-HCI buffer, pH 7.4 (pH was adjusted to 7.4 at 4° C.)) was added to the cells, followed by reacting at 4° C. for 48 hours. After completion of the reaction, 25 μl of the solution mixture of aminopeptidase (Sigma L-5006, final concentration: 20.4 μg/ml) and phosphoramidone (Peptide Inst. 4082, final concentration: 10 μM) and 25 μl of nitrosalicylaldehyde solution (6 mM) were further added thereto sequentially. The mixture was reacted at 37° C. for 30 minutes. The reaction was completed by washing the cells twice with TBS. Using argon laser and a filter for rhodamine, positive stained images were observed under a confocal laser scanning microscope (FIG. 1). When the substrate is degraded by neprilysin, an insoluble fluorescent reaction product is formed so that the sites where neprilysin is present are visualized in yellow.
Nerve cells were prepared from the mouse fetal cerebral cortex and hippocampus, followed by incubation as in EXAMPLE 1. On day 7 of the incubation, somatostatin (somatostatin 14 and 28, final concentration: 1 μM) was added to the cells, followed by incubation for further 24 hours. […] To investigate in further detail, these stained images were quantified by image analysis software (Nippon Roper Co., Ltd., MetaVue) and examined.

With “PACAP: pituitary adenylate cyclase-activating polypeptide, publicly known neuropeptide”, the “action against the neprilysin activity or its gene expression” value is given as “inhibitorily acts”. Also, the “neprilysin activity in the nerve cells compared to control added with no peptide” value (mouse fetal cerebral cortex and hippocampus primary nerve cells, peptide final concentration 1 μM, 24 hours, stained images observed) is “markedly decreased”.
As to “VIP: vasoactive intestinal peptide, publicly known neuropeptide”, the “action against the neprilysin activity or its gene expression” value is given as “inhibitorily acts”.
